Measured values reported in the supplement of paper PMC11246515.
± gives the standard deviation of the averaged measurements.

Test: total protein half-life in vivo (active degradation + dilution); higher = more stable protein
[1] = E. coli NCM3722 delta-clpP, growth: N-lim chemostat, doubling time 6 h
[2] = E. coli NCM3722 delta-hslV, growth: N-lim chemostat, doubling time 6 h
[3] = E. coli NCM3722 delta-lon, growth: N-lim chemostat, doubling time 6 h
[4] = E. coli NCM3722 delta-smpB, growth: N-lim chemostat, doubling time 6 h
[5] = wild type E. coli NCM3722, growth: N-lim chemostat, doubling time 6 h
[6] = wild type E. coli NCM3722, growth: P-lim chemostat, doubling time 12 h
[7] = E. coli NCM3722 delta-clpP delta-lon delta-hslV, growth: N-lim chemostat, doubling time 6 h
[8] = wild type E. coli NCM3722, growth: C-lim chemostat, doubling time 3 h
[9] = wild type E. coli NCM3722, growth: C-lim chemostat, doubling time 6 h
[10] = wild type E. coli NCM3722, growth: C-lim chemostat, doubling time 12 h
[11] = wild type E. coli NCM3722, growth: N-lim chemostat, doubling time 12 h
[12] = wild type E. coli NCM3722, growth: P-lim chemostat, doubling time 6 h

MLMLFLTVAMVHIVALMSPGPDFFFVSQTAVSRSRKEAMMGVLGITCGVMVWAGIALLGLHLIIEKMAWLHTLIMVGGGLYLCWMGYQMLRGALKKEAVSAPAPQVELAKSGRSFLKGLLTNLANPKAIIYFGSVFSLFVGDNVGTTARWGIFALIIVETLAWFTVVASLFALPQMRRGYQRLAKWIDGFAGALFAGFGIHLIISR [P0AG38]
total protein half-life in vivo [1]: 1.14 h | total protein half-life in vivo [2]: 0.979 h | total protein half-life in vivo [3]: 0.822 h | total protein half-life in vivo [4]: 1.13 ± 0.1 h | total protein half-life in vivo [5]: 1.13 h | total protein half-life in vivo [6]: 2.22 ± 0.65 h

MLNAWHLPVPPFVKQSKDQLLITLWLTGEDPPQRIMLRTEHDNEEMSVPMHKQRSQPQPGVTAWRAAIDLSSGQPRRRYSFKLLWHDRQRWFTPQGFSRMPPARLEQFAVDVPDIGPQWAADQIFYQIFPDRFARSLPREAEQDHVYYHHAAGQEIILRDWDEPVTAQAGGSTFYGGDLDGISEKLPYLKKLGVTALYLNPVFKAPSVHKYDTEDYRHVDPQFGGDGALLRLRHNTQQLGMRLVLDGVFNHSGDSHAWFDRHNRGTGGACHNPESPWRDWYSFSDDGTALDWLGYASLPKLDYQSESLVNEIYRGEDSIVRHWLKAPWNMDGWRLDVVHMLGEAGGARNNMQHVAGITEAAKETQPEAYIVGEHFGDARQWLQADVEDAAMNYRGFTFPLWGFLANTDISYDPQQIDAQTCMAWMDNYRAGLSHQQQLRMFNQLDSHDTARFKTLLGRDIARLPLAVVWLFTWPGVPCIYYGDEVGLDGKNDPFCRKPFPWQVEKQDTALFALYQRMIALRKKSQALRHGGCQVLYAEDNVVVFVRVLNQQRVLVAINRGEACEVVLPASPFLNAVQWQCKEGHGQLTDGILALPAISATVWMN
total protein half-life in vivo [7]: 6.31 ± 0.59 h | total protein half-life in vivo [1]: 6.88 ± 1.2 h | total protein half-life in vivo [2]: 2.49 ± 0.11 h | total protein half-life in vivo [3]: 2.59 ± 0.38 h | total protein half-life in vivo [4]: 2.28 ± 0.031 h | total protein half-life in vivo [8]: 2.48 ± 0.074 h | total protein half-life in vivo [9]: 3.86 ± 0.075 h | total protein half-life in vivo [10]: 6.87 ± 1.4 h | total protein half-life in vivo [5]: 2.18 h | total protein half-life in vivo [11]: 3.45 ± 0.98 h | total protein half-life in vivo [12]: 5 ± 0.27 h | total protein half-life in vivo [6]: 7.49 ± 0.34 h

MLNERQLKIVDLLEQQPRTPGELAQQTGVSGRTILRDIDYLNFTLNGKARIFASGSAGYQLEIFERRSFFQLLQKHDNDDRLLALLLLNTFTPRAQLASALNLPETWVAERLPRLKQRYERTCCLASRPGLGHFIDETEEKRVILLANLLRKDPFLIPLAGITRDNLQHLSTACDNQHRWPLMQGDYLSSLILAIYALRNQLTDEWPQYPGDEIKQIVEHSGLFLGDNAVRTLTGLIEKQHQQAQVISADNVQGLLQRVPGIASLNIIDAQLVENITGHLLRCLAAPVWIAEHRQSSMNNLKAAWPAAFDMSLHFITLLREQLDIPLFDSDLIGLYFACALERHQNERQPIILLSDQNAIATINQLAIERDVLNCRVIIARSLSELVAIREEIEPLLIINNSHYLLDDAVNNYITVKNIITAAGIEQIKHFLATAFIRQQPERFFSAPGSFHYSNVRGESWQHITRQICAQLVAQHHITADEAQRIIAREGEGENLIVNRLAIPHCWSEQERRFRGFFITLAQPVEVNNEVINHVLIACAAADARHELKIFSYLASILCQHPAEIIAGLTGYEAFMELLHKG
total protein half-life in vivo [7]: 6.57 h

MLNIVLYEPEIPPNTGNIIRLCANTGFRLHIIEPMGFAWDDKRLRRAGLDYHEFTAVTRHHDYRAFLEAENPQRLFALTTKGTPAHSAVSYQDGDYLMFGPETRGLPASILDALPAEQKIRIPMVPDSRSMNLSNAVSVVVYEAWRQLGYPGAVLRD [P0AGJ7]
total protein half-life in vivo [7]: 5.27 ± 0.13 h | total protein half-life in vivo [2]: 5.83 ± 0.49 h | total protein half-life in vivo [3]: 5.54 ± 0.16 h | total protein half-life in vivo [4]: 4.82 ± 0.33 h | total protein half-life in vivo [8]: 2.91 ± 0.35 h | total protein half-life in vivo [9]: 6.26 h | total protein half-life in vivo [10]: 13.8 ± 2.8 h | total protein half-life in vivo [5]: 5.23 h | total protein half-life in vivo [11]: 8.21 ± 0.38 h | total protein half-life in vivo [12]: 5.93 ± 0.22 h | total protein half-life in vivo [6]: 11.9 ± 0.24 h

MLNKLSLLLKDAGISLTDHQKNQLIAYVNMLHKWNKAYNLTSVRDPNEMLVRHILDSIVVAPYLQGERFIDVGTGPGLPGIPLSIVRPEAHFTLLDSLGKRVRFLRQVQHELKLENIEPVQSRVEEFPSEPPFDGVISRAFASLNDMVSWCHHLPGEQGRFYALKGQMPEDEIALLPEEYQVESVVKLQVPALDGERHLVVIKANKI [P0A6U5]
total protein half-life in vivo [7]: 5.85 ± 1.7 h | total protein half-life in vivo [1]: 4.636 ± 0.041 h | total protein half-life in vivo [3]: 5.33 ± 0.68 h | total protein half-life in vivo [4]: 4.48 ± 0.18 h | total protein half-life in vivo [8]: 3.51 ± 0.68 h | total protein half-life in vivo [10]: 10.5 ± 1.6 h | total protein half-life in vivo [5]: 5.09 ± 0.33 h | total protein half-life in vivo [11]: 8.45 ± 0.31 h | total protein half-life in vivo [12]: 5.87 ± 0.69 h | total protein half-life in vivo [6]: 13.1 ± 2 h

MLNLFVGLDIYTGLLLLLALAFVLFYEAINGFHDTANAVAAVIYTRAMQPQLAVVMAAFFNFFGVLLGGLSVAYAIVHMLPTDLLLNMGSTHGLAMVFSMLLAAIIWNLGTWFFGLPASSSHTLIGAIIGIGLTNALLTGSSVMDALNLREVTKIFSSLIVSPIVGLVIAGGLIFLLRRYWSGTKKRDRIHRIPEDRKKKKGKRKPPFWTRIALIVSAAGVAFSHGANDGQKGIGLVMLVLVGIAPAGFVVNMNASGYEITRTRDAVTNFEHYLQQHPELPQKLIAMEPPLPAASTDGTQVTEFHCHPANTFDAIARVKTMLPGNMESYEPLSVSQRSQLRRIMLCISDTSAKLAKLPGVSKEDQNLLKKLRSDMLSTIEYAPVWIIMAVALALGIGTMIGWRRVAMTIGEKIGKRGMTYAQGMAAQMTAAVSIGLASYIGMPVSTTHVLSSAVAGTMVVDGGGLQRKTVTSILMAWVFTLPAAIFLSGGLYWIALQLI
total protein half-life in vivo [7]: 6.37 h | total protein half-life in vivo [1]: 5.68 h | total protein half-life in vivo [4]: 5.61 ± 0.43 h | total protein half-life in vivo [5]: 6.47 h | total protein half-life in vivo [12]: 6.03 ± 0.27 h | total protein half-life in vivo [6]: 13.1 h

MLNRYPLWKYVMLIVVIVIGLLYALPNLFGEDPAVQITGARGVAASEQTLIQVQKTLQEEKITAKSVALEEGAILARFDSTDTQLRAREALMGVMGDKYVVALNLAPATPRWLAAIHAEPMKLGLDLRGGVHFLMEVDMDTALGKLQEQNIDSLRSDLREKGIPYTTVRKENNYGLSITFRDAKARDEAIAYLSKRHPDLVISSQGSNQLRAVMSDARLSEAREYAVQQNINILRNRVNQLGVAEPVVQRQGADRIVVELPGIQDTARAKEILGATATLEFRLVNTNVDQAAAASGRVPGDSEVKQTREGQPVVLYKRVILTGDHITDSTSSQDEYNQPQVNISLDSAGGNIMSNFTKDNIGKPMATLFVEYKDSGKKDANGRAVLVKQEEVINIANIQSRLGNSFRITGINNPNEARQLSLLLRAGALIAPIQIVEERTIGPTLGMQNIEQGLEACLAGLLVSILFMIIFYKKFGLIATSALIANLILIVGIMSLLPGATLSMPGIAGIVLTLAVAVDANVLINERIKEELSNGRTVQQAIDEGYRGAFSSIFDANITTLIKVIILYAVGTGAIKGFAITTGIGVATSMFTAIVGTRAIVNLLYGGKRVKKLSI [P0AG90]
total protein half-life in vivo [7]: 7.05 ± 0.45 h | total protein half-life in vivo [1]: 6.58 ± 0.21 h | total protein half-life in vivo [2]: 6.5 ± 0.39 h | total protein half-life in vivo [3]: 6.33 ± 0.36 h | total protein half-life in vivo [4]: 5.92 ± 0.46 h | total protein half-life in vivo [8]: 3.51 ± 0.36 h | total protein half-life in vivo [9]: 5.86 ± 0.32 h | total protein half-life in vivo [10]: 12.6 ± 2 h | total protein half-life in vivo [5]: 6.19 ± 0.036 h | total protein half-life in vivo [11]: 12.1 ± 0.19 h | total protein half-life in vivo [12]: 6.36 ± 0.41 h | total protein half-life in vivo [6]: 12.2 ± 0.8 h

MLNTLIVGASGYAGAELVTYVNRHPHMNITALTVSAQSNDAGKLISDLHPQLKGIVDLPLQPMSDISEFSPGVDVVFLATAHEVSHDLAPQFLEAGCVVFDLSGAFRVNDATFYEKYYGFTHQYPELLEQAAYGLAEWCGNKLKEANLIAVPGCYPTAAQLALKPLIDADLLDLNQWPVINATSGVSGAGRKAAISNSFCEVSLQPYGVFTHRHQPEIATHLGADVIFTPHLGNFPRGILETITCRLKSGVTQAQVAQVLQQAYAHKPLVRLYDKGVPALKNVVGLPFCDIGFAVQGEHLIIVATEDNLLKGAAAQAVQCANIRFGYAETQSLI
total protein half-life in vivo [7]: 3.94 ± 0.2 h | total protein half-life in vivo [1]: > 8 h | total protein half-life in vivo [2]: 3.34 ± 0.5 h | total protein half-life in vivo [3]: 4.24 ± 0.74 h | total protein half-life in vivo [4]: 3.24 ± 0.057 h | total protein half-life in vivo [8]: 2.67 ± 0.42 h | total protein half-life in vivo [9]: 5.7 ± 1.4 h | total protein half-life in vivo [10]: 9.58 ± 0.43 h | total protein half-life in vivo [5]: 3.24 h | total protein half-life in vivo [11]: 5.58 h | total protein half-life in vivo [12]: 5.06 ± 0.19 h | total protein half-life in vivo [6]: 9.57 ± 0.58 h

MLPDSSVRLNKYISESGICSRREADRYIEQGNVFLNGKRATIGDQVKPGDVVKVNGQLIEPREAEDLVLIALNKPVGIVSTTEDGERDNIVDFVNHSKRVFPIGRLDKDSQGLIFLTNHGDLVNKILRAGNDHEKEYLVTVDKPITEEFIRGMSAGVPILGTVTKKCKVKKEAPFVFRITLVQGLNRQIRRMCEHFGYEVKKLERTRIMNVSLSGIPLGEWRDLTDDELIDLFKLIENSSSEVKPKAKAKPKTAGIKRPVVKMEKTAEKGGRPASNGKRFTSPGRKKKGR
total protein half-life in vivo [7]: 6.01 ± 1.2 h | total protein half-life in vivo [1]: 3.751 ± 0.021 h | total protein half-life in vivo [2]: 3.44 ± 0.14 h | total protein half-life in vivo [3]: 5.61 ± 0.41 h | total protein half-life in vivo [4]: 3.43 ± 0.087 h | total protein half-life in vivo [8]: 2.2 ± 0.11 h | total protein half-life in vivo [9]: 4.11 ± 0.4 h | total protein half-life in vivo [10]: 5.93 ± 0.93 h | total protein half-life in vivo [5]: 3.29 ± 0.094 h | total protein half-life in vivo [11]: 5.37 ± 0.073 h | total protein half-life in vivo [12]: 2.59 ± 0.18 h | total protein half-life in vivo [6]: 5.07 ± 0.21 h

MLPFLKAPADAPLMTDKYEIDARYRYWRRHILLTIWLGYALFYFTRKSFNAAVPEILANGVLSRSDIGLLATLFYITYGVSKFVSGIVSDRSNARYFMGIGLIATGIINILFGFSTSLWAFAVLWVLNAFFQGWGSPVCARLLTAWYSRTERGGWWALWNTAHNVGGALIPIVMAAAALHYGWRAGMMIAGCMAIVVGIFLCWRLRDRPQALGLPAVGEWRHDALEIAQQQEGAGLTRKEILTKYVLLNPYIWLLSFCYVLVYVVRAAINDWGNLYMSETLGVDLVTANTAVTMFELGGFIGALVAGWGSDKLFNGNRGPMNLIFAAGILLSVGSLWLMPFASYVMQATCFFTIGFFVFGPQMLIGMAAAECSHKEAAGAATGFVGLFAYLGASLAGWPLAKVLDTWHWSGFFVVISIAAGISALLLLPFLNAQTPREA
total protein half-life in vivo [7]: 7.27 h | total protein half-life in vivo [1]: 6.56 ± 0.2 h | total protein half-life in vivo [2]: 5.26 h | total protein half-life in vivo [3]: 5.43 ± 0.18 h | total protein half-life in vivo [4]: 6.52 ± 0.92 h | total protein half-life in vivo [8]: 2.81 h | total protein half-life in vivo [9]: 6.04 h | total protein half-life in vivo [10]: 10.4 h | total protein half-life in vivo [5]: 5.01 ± 2.2 h | total protein half-life in vivo [11]: > 16 h | total protein half-life in vivo [6]: 10.6 ± 1.1 h
